According to patent US20140315986, “APTAMERS THAT BIND TO IL-6 AND THEIR USE IN TREATING OR DIAGNOSING IL-6 MEDIATED CONDITIONS” (Otsuka Pharmaceutical Co., Ltd., published 2014):

Molecular target: IL-6 (mature human interleukin-6) (Homo sapiens, UniProt P05231 SEQ:1-184)
Experiment: cell_activity
Details: tags: untagged, R&D Systems; biotinylated with NHS-PEO4-biotin for SELEX

Sequence of IL-6 (mature human interleukin-6) (P05231 29-212): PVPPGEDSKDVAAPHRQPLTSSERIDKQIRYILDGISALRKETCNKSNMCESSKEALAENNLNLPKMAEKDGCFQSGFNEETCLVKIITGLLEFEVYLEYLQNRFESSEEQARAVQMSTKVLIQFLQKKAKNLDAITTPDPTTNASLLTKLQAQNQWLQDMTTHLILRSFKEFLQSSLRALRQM

Binder	IC50 [nM]
GGGUUAUGUAGCGUGCGUAAGGCGGU (ssDNA, G-G1-G-Nap1-Nap-A-Nap-G-Nap1-A-G-C-C3-C3-G-U1-G1-C-G-Nap1-A-A-G-G-C-G1-G1-Nap1 (1=2'-OMe)) [2574-49_326]	0.11
GGCAGGUUUGGUAUUAACACGUUAAGUCGUGG (ssDNA, G-G-C1-A-G-G1-Bn-Bn-Pe2-G-G-Nap-A-Bn-Bn-A1-A-C-A1-C1-G-Bn-Bn2-A-A-G-Bn-C1-G-Bn2-G-G (1=2'-OMe, 2=PS)) [2573-20_780]	0.087
GGGUUAUGUAGCGUGCGUAAGGCGGU (ssDNA, G-G1-G-Nap1-Nap2-A2-Nap2-G-Nap1-A2-G1-C1-C3-C3-G1-U1-G1-C2-G2-Nap1-A2-A2-G2-G1-C2-G1-G1-Nap1 (1=2'-OMe, 2=PS)) [2574-49_411]	5.8
GGGUUAUGUAGCGUGCGUAAGGCGGU (ssDNA, G-G1-G-Nap1-Nap2-A-Nap-G-Nap1-A-G-C-C3-C3-G1-U1-G1-C-G-Nap1-A-A-G-G-C-G1-G1-Nap1 (1=2'-OMe, 2=PS)) [2574-49_338]	0.02
